This passage reports koff and Kd results from article PMC13132546 (2026).

Experiment [1] addresses T1, DYRK1A (recombinant, N-terminally biotinylated) (UniProt Q13627 1-763, biotin on the N-terminus (sortase labelling with a synthetic biotin-LPETGG peptide onto the N-terminal glycine left after TEV cleavage)). Put plainly: BLI. Background: Biolayer interferometry detects binding as a change in optical thickness at a sensor tip.
The target of experiment [2] is T1, DYRK1A (recombinant, N-terminally …). Put plainly: BLI; steady-state response analysis.

B1: FAM53C (recombinant) (natural protein)
chain: MITLITEQLQKQTLDELKCTRFSISLPLPDHADISNCGNSFQLVSEGASWRGLPHCSCAEFQDSLNFSYHPSGLSLHLRPPSRGNSPKEQPFSQVLRPEPPDPEKLPVPPAPPSKRHCRSLSVPVDLSRWQPVWRPAPSKLWTPIKHRGSGGGGGPQVPHQSPPKRVSSLRFLQAPSASSQCAPAHRPYSPPFFSLALAQDSSRPCAASPQSGSWESDAESLSPCPPQRRFSLSPSLGPQASRFLPSARSSPASSPELPWRPRGLRNLPRSRSQPCDLDARKTGVKRRHEEDPRRLRPSLDFDKMNQKPYSGGLCLQETAREGSSISPPWFMACSPPPLSASCSPTGGSSQVLSESEEEEEGAVRWGRQALSKRTLCQRDFGDLDLNLIEEN
Turning to B1, in experiment [1], the koff (commonly the first-order rate constant of dissociation) was 0.04 s⁻¹. In experiment [2], the Kd (usually the concentration at which binding is half-saturated) is 3.3 µM.
